Biological target: KO_CRD4+linker (human OX40 aa 147 to 214 replaced with the mouse counterparts) (human; mouse)
Assay: flow cytometry, transfected 293F cells, column KO_CRD4+linker

KO_CRD4+linker (human OX40 aa 147 to 214 replaced with the mouse counterparts) (human; mouse), sequence (chain, as listed by the source limits assumed, form in doubt): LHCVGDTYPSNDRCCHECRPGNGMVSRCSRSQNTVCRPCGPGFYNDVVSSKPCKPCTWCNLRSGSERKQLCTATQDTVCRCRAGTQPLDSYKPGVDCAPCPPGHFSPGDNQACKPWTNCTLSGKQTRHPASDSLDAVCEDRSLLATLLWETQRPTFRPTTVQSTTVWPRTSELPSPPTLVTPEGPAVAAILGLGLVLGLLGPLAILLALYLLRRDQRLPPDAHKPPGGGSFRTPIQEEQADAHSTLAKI

B1: 9B12 (antibody, mouse IgG1, V domains shown)
VH: EVQLQESGPSLVKPSQTLSLTCSVTGDSFTSGYWNWIRKFPGNRLEYMGYISYNGITYHNPSLKSRISITRDTSKNHYYLQLNSVTTEDTATYFCARYRYDYDGGHAMDYWGQGTLVTVSS
VL: DIQMTQTTSSLSASLGDRVTISCRASQDISNYLNWYQQKPDGTVKLLIYYTSKLHSGVPSRFSGSGSRTDYSLTITDLDQEDIATYFCQQGSALPWTFGQGTKVEIKR
- percent of cells in the Alexa Fluor 488 gate (number printed over the gate): 52.7

Reference: patent publication US20160137740A1
